From US20220259297A1 (ACCELERON PHARMA, published 2022)

Tests used:
Assay in all cases: SPR (Biacore); receptor-Fc captured by anti-Fc antibody, ligand injected
activin A = molecular target: T1, activin A (UniProt P08476 311-426)
T1 sequence (looked up): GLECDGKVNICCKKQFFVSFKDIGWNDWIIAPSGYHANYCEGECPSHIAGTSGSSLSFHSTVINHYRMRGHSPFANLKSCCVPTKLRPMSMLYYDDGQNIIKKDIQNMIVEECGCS
Protocol: (§1) A Biacore™-based binding assay was used to compare ligand binding selectivity of an exemplary ALK4-Fc:ActRIIB-Fc heterodimeric complex as described above with the binding selectivity of ActRIIB-Fc and ALK4-Fc homodimer complexes. The ALK4-Fc:ActRIIB-Fc heterodimer, ActRIIB-Fc homodimer, and ALK4-Fc homodimer were independently captured onto the system using an anti-Fc antibody. Ligands were injected and allowed to flow over the captured receptor protein. Results are summarized in the Table 5 below, in which ligand off-rates (kd) most indicative of effective ligand traps are denoted by gray shading.

activin B = molecular target: T2, activin B (UniProt P09529 293-407)
T2 sequence (looked up): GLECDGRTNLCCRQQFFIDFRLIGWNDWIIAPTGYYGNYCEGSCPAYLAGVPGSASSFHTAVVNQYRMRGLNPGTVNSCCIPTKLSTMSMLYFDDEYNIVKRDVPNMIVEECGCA
Protocol: as §1

GDF8 = molecular target: T3, GDF8 (UniProt O14793 267-375)
T3 construct: also called myostatin
T3 sequence (looked up): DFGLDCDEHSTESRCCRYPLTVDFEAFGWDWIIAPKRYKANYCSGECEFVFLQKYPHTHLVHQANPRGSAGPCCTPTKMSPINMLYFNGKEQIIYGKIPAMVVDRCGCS
Protocol: as §1

BMP10 = molecular target: T4, BMP10 (UniProt O95393 317-424)
T4 sequence (looked up): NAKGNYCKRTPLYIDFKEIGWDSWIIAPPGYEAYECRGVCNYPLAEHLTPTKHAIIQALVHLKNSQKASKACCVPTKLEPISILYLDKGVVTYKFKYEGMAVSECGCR
Protocol: as §1

GDF11 = molecular target: T5, GDF11 (UniProt O95390 299-407)
T5 construct: also called BMP11
T5 sequence (looked up): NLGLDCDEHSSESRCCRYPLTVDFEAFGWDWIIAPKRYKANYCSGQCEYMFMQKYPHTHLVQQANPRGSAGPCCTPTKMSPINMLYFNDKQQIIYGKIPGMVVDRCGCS
Protocol: as §1

GDF3 = molecular target: T6, GDF3 (UniProt Q9NR23 251-364)
T6 sequence (looked up): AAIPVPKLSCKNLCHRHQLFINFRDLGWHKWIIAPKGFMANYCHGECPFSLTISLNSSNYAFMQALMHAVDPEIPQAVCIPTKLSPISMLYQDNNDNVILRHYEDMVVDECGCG
Protocol: as §1

BMP6 = molecular target: T7, BMP6 (UniProt P22004 382-513, limits assumed)
T7 sequence (looked up): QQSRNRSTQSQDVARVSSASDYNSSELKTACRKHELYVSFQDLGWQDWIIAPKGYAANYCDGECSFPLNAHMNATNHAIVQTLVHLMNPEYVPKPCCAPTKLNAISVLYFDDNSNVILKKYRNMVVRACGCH
Protocol: as §1

koff (activin A): 0.00015 s⁻¹
kon (activin A): 1.3e+07 M⁻¹ s⁻¹
koff (activin B): 4e-05 s⁻¹
kon (activin B): 7.1e+06 M⁻¹ s⁻¹
koff (GDF8): 0.00021 s⁻¹
kon (GDF8): 390000 M⁻¹ s⁻¹
koff (BMP10): 0.0041 s⁻¹
kon (BMP10): 5.6e+07 M⁻¹ s⁻¹
koff (GDF11): 0.00011 s⁻¹
kon (GDF11): 3.8e+07 M⁻¹ s⁻¹
koff (GDF3): 0.017 s⁻¹
kon (GDF3): 3.4e+06 M⁻¹ s⁻¹
koff (BMP6): 0.0055 s⁻¹
kon (BMP6): 2e+06 M⁻¹ s⁻¹
B1: ALK4-Fc:ActRIIB-Fc heterodimer (Fc fusion)
chain 1: SGPRGVQALLCACTSCLQANYTCETDGACMVSIFNLDGMEHHVRTCIPKVELVPAGKPFYCLSSEDLRNTHCCYTDYCNRIDLRVPSGHLKEPEHPSMWGPVETGGGTHTCPPCPAPELLGGPSVFLFPPKPKDTLMISRTPEVTCVVVDVSHEDPEVKFNWYVDGVEVHNAKTKPREEQYNSTYRVVSVLTVLHQDWLNGKEYKCKVSNKALPAPIEKTISKAKGQPREPQVYTLPPSREEMTKNQVSLTCLVKGFYPSDIAVEWESNGQPENNYDTTPPVLDSDGSFFLYSDLTVDKSRWQQGNVFSCSVMHEALHNHYTQKSLSLSPG
chain 2: GRGEAETRECIYYNANWELERTNQSGLERCEGEQDKRLHCYASWRNSSGTIELVKKGCWLDDFNCYDRQECVATEENPQVYFCCCEGNFCNERFTHLPEAGGPEVTYEPPPTAPTGGGTHTCPPCPAPELLGGPSVFLFPPKPKDTLMISRTPEVTCVVVDVSHEDPEVKFNWYVDGVEVHNAKTKPREEQYNSTYRVVSVLTVLHQDWLNGKEYKCKVSNKALPAPIEKTISKAKGQPREPQVYTLPPSRKEMTKNQVSLTCLVKGFYPSDIAVEWESNGQPENNYKTTPPVLKSDGSFFLYSKLTVDKSRWQQGNVFSCSVMHEALHNHYTQKSLSLSPGK
notes: The C-terminal lysine is optional; also called ALK4-Fc:ActRIIB-Fc heterodimeric complex; ALK4:ActRIIB heterodimer
